Results from patent US20190248900A1 (Y BIOLOGICS, published 2019).

Experiments:
Assay in all cases: ELISA
RAET1E = molecular target: T1, RAET1E (Homo sapiens (Human), UniProt Q8TD07 31-225)
T1 sequence: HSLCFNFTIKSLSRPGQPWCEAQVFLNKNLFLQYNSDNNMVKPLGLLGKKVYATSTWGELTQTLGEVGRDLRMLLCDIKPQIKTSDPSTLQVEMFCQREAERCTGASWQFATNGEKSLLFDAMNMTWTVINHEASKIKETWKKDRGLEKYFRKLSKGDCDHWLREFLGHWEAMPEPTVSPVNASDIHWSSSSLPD

DKK4 = molecular target: T2, DKK4 (Homo sapiens (Human), UniProt Q9UBT3 19-224)
T2 sequence: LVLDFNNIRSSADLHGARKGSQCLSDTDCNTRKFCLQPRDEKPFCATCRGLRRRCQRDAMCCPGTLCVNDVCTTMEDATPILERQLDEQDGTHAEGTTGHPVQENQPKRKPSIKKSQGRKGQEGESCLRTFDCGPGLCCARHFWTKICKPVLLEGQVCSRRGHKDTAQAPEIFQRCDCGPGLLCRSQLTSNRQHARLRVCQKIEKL

PLXDC1 = molecular target: T3, PLXDC1 (Homo sapiens (Human), UniProt Q8IUK5 19-426)
T3 sequence: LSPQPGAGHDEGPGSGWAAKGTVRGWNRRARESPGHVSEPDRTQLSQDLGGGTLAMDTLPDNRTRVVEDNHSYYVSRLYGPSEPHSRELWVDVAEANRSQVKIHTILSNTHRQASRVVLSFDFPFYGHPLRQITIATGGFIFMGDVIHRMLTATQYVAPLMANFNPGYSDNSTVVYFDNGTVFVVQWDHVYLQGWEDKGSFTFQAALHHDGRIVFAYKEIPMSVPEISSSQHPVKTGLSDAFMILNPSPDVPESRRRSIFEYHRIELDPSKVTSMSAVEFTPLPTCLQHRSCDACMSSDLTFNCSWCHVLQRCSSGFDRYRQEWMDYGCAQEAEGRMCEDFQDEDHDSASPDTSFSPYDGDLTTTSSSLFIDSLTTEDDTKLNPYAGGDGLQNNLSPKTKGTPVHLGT

SUSD1 = SUSD1 (Homo sapiens (Human), UniProt Q6UWL2 30-721)
DNER = molecular target: T4, DNER (Homo sapiens (Human), UniProt Q8NFT8 35-640)
T4 sequence: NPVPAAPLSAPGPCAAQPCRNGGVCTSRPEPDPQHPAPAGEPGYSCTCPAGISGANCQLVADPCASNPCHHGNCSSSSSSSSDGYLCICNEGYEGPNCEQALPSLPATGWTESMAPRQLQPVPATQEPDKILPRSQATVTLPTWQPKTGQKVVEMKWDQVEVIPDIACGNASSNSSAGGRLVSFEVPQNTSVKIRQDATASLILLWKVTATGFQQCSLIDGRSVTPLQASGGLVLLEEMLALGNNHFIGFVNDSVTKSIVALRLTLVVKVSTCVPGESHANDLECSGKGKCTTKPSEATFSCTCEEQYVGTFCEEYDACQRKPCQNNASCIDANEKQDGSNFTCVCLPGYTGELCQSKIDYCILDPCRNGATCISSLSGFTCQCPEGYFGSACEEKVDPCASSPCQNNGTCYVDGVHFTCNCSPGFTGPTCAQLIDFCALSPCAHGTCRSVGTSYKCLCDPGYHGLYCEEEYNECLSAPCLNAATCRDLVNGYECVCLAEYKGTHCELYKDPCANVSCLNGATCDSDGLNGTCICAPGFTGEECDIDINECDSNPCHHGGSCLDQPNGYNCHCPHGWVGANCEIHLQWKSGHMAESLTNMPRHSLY

CREG1 = molecular target: T5, CREG1 (Homo sapiens (Human), UniProt O75629 32-220)
T5 sequence: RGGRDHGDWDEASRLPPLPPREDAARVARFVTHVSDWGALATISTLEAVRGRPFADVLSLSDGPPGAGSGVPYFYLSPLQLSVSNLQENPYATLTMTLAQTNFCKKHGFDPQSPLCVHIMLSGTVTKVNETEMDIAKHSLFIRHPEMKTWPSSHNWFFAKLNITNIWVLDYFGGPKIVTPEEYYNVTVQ

PLXDC2 = PLXDC2 (Homo sapiens (Human), UniProt Q6UX71 31-454)
GREM1 = molecular target: T6, GREM1 (Homo sapiens (Human), UniProt O60565 25-184)
T6 sequence: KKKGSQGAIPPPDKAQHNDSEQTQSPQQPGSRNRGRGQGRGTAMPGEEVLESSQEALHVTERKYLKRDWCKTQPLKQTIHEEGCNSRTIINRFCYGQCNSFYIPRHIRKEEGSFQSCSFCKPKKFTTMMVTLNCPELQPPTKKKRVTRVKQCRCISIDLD

TPBG = molecular target: T7, TPBG (Homo sapiens (Human), UniProt Q13641 32-355)
T7 sequence: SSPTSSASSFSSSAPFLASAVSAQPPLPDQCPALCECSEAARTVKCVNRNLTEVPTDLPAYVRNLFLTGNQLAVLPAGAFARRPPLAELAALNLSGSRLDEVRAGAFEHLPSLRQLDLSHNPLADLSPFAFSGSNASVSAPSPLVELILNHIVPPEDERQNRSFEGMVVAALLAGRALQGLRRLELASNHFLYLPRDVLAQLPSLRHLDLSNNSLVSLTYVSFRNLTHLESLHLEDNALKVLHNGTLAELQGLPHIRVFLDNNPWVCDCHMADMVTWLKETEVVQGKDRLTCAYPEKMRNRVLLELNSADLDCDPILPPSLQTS

WFDC2 = molecular target: T8, WFDC2 (Homo sapiens (Human), UniProt Q14508 31-124)
T8 sequence: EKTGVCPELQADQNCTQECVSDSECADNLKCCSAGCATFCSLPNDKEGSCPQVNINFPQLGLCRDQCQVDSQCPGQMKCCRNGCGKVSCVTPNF

Measured: binding result

Chain of PLXDC2 (Q6UX71 31-454 limits assumed): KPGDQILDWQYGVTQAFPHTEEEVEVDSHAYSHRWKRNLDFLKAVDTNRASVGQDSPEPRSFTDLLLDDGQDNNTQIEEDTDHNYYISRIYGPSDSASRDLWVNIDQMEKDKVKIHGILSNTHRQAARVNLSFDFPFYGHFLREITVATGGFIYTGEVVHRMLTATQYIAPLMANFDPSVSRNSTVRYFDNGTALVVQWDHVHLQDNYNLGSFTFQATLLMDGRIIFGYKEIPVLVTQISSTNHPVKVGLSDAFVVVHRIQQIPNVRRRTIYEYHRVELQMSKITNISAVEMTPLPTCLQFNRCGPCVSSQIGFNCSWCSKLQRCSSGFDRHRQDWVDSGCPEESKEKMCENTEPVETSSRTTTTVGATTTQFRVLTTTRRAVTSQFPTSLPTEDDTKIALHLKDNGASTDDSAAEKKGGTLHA
Chain of SUSD1 (Q6UWL2 30-721 limits assumed): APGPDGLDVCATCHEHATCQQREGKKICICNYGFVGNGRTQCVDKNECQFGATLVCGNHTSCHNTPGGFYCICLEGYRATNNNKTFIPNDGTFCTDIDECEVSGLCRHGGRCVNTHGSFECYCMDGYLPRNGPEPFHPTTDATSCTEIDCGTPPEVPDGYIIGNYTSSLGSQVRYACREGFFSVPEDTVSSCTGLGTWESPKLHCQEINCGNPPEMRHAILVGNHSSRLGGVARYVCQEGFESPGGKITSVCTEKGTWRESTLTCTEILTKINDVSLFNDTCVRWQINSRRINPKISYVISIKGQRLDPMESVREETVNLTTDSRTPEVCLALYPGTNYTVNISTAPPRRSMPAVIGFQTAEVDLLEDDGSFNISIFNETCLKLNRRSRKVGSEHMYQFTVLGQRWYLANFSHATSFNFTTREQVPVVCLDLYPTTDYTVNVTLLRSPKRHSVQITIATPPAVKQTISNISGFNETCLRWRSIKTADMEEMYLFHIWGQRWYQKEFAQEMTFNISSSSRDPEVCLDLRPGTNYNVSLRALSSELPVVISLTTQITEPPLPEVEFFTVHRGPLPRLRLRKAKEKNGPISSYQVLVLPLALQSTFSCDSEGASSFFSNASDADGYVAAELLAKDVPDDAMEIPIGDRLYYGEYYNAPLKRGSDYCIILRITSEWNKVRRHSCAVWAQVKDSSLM

B1: PD1-41C9 (antibody, V domains shown)
VH: QMQLVESGGGVVQPGRSLRLSCAASGFTFSSYAMHWVRQAPGKGLEWVAVISYDGSNKYYADSVKGRFTISRDNSKNTLYLQMNRLRSEDTAVYYCTTTTFDSWGQGTLITVSS
VL: DIVMTQTPLSLPVTPGEAASISCRSSQSLLDSEDGNTYLDWYLQKPGQSPQLLIYTLSHRASGVPDRFSGSGSGTDFTLKISRVAAEDVGLYYCLQRMGFPYTFGQGTKLDIK
notes: scFv-phage in the screening ELISA; whole IgG in the other assays
no binding (tested: 1 ug/ml): all assays above

B2: PD1-49A2 (antibody, V domains shown)
VH: QVQLVESGGGVVQPGRSLRLSCAASGFTFSSYAMHWVRQAPGKGLEWVAVISYDGSNKYYADSVKGRFTISRDNPKNTLYLQMNSLRAEDTAVYYCTTTTFDSWGRGTLVTVSS
VL: DIVMTQSPLSLPVTPGEPASISCRSSQSLFDSDDGNTYLDWYLQKPGQSPQLLIYTLSHRASGVPDRFSGSGSGTDFTLKISRVEAEDVGIYYCLQRMGFPYTFGQGTKVEIK
notes: scFv-phage in the screening ELISA; whole IgG in the other assays; also called Parent 49A2
no binding (tested: 1 ug/ml): all assays above

B3: PD1-45D6 (antibody, V domains shown)
VH: QVQLVESGGGVVQPGRSLRLSCAASGFTFSSYAMHWVRQVPGKGLEWVAVISYDGNDKYYADSVKGRFTISRDNSKNTLYLQMNSLRAEDTAVYYCVPTTFEYWGQGSQVTVSS
VL: DIVMTQTPLSLPVTPGEAASISCRSSQSLLDSDDGKTYLDWYLQKPGQSPQLLIYTLSYRASGVPDRFSGSGSGTEFNLRISRVEAEDVGIYYCMQRVEFPFTFGQGTKLDIK
notes: as for B1
no binding (tested: 1 ug/ml): all assays above
